We go through one molecule from patent US5596072.

What is called IC50 is the midpoint of a concentration-inhibition curve.

For this assay, the target named is functional human IL-4 receptor (hIL-4R) on TF-1 cells (human) (UniProt P24394). The experiment in a line: displacement of I^125-hIL-4 from TF-1 cells.

B1: mouse IL-13 (mouse P600), E. coli-derived (ligand)
chain: APGPVPRSVSLPLTLKELIEELSNITQDQTPLCNGSMVWSVDLAAGGFCVALDSLTNISNCNAIYRTQRILHGLCNRKAPTTVSSLPDTKI
B1 displayed an IC50 of 0.2 nM and a percent of the I^125-hIL-4 binding displaced of 70%.
